Test results from article PMC12117405 (Nucleic Acids Research, 2025).
One block for each binder: values may come before it.

Tests used:
Assay in all cases: pull-down
[1] = target: Lsm6/5/7 (human, UniProt P62312;Q9Y4Y9;Q9UK45)
[2] = target: SmD1/D2 (human, UniProt P62314;P62316)
[3] = target: SmF/E/G (human, UniProt P62306;P62304;P62308)

Lsm6/5/7, sequence (Q9Y4Y9 whole entry, chain 2 of 2): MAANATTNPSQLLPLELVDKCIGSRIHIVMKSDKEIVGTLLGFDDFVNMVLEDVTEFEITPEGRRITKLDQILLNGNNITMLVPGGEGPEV
Lsm6/5/7, sequence (Q9UK45 whole entry, chain 3 of 2): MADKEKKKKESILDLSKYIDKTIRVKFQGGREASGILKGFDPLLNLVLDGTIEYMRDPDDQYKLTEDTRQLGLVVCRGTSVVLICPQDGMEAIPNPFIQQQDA

binding result [1]: binds
B1: Lsm2/3 (complex)
chain 1: MLFYSFFKSLVGKDVVVELKNDLSICGTLHSVDQYLNIKLTDISVTDPEKYPHMLSVKNCFIRGSVVRYVQLPADEVDTQLLQDAARKEALQQKQ
chain 2: not shown

binding result [2]: binds
binding result [3]: binds
B2: His-tagged Gemin2/MBP-SMN(26-62) (complex)
chain 1: FDPSVPPRTPQEYLRRVQIEAAQCPDVVVAQIDPKKLKRKQSVNISLSGCQPAPEGYSPTLQWQQQQVAQFSTVRQNVNKHRSHWKSQQLDSNVTMPKSEDEEGWKKFCLGEKLCADGAVGPATNESPGIDYVQIGFPPLLSIVSRMNQATVTSVLEYLSNWFGERDFTPELGRWLYALLACLEKPLLPEAHSLIRQLARRCSEVRLLVDSKDDERVPALNLLICLVSRYFDQRDLADEPS
chain 2: GQSDDSDIWDDTALIKAYDKAVASFKHALKNGDICET
